Assay [1] concerns the target T1, chimera 332 / hTGF-β1 complex on the cell surface (Mus musculus, UniProt G3XA59).
T1 construct: N-terminal part
Briefly: FACS, 293T, HA-tagged construct + hTGFB1.

Assay [2] addresses T2, chimera 141 / hTGF-β1 complex on the cell surface (Mus musculus, UniProt G3XA59).
T2 construct: N-terminal part
Briefly: FACS, 293T, HA-tagged construct + hTGFB1.

Assay [3] addresses T3, chimera 207 / hTGF-β1 complex on the cell surface (Mus musculus, UniProt G3XA59).
T3 construct: N-terminal part
Briefly: FACS, 293T, HA-tagged construct + hTGFB1.

Assay [4] has as its target T4, chimera 265 / hTGF-β1 complex on the cell surface (Mus musculus, UniProt G3XA59).
T4 construct: N-terminal part
Description: FACS, 293T, HA-tagged construct + hTGFB1.

For assay [5], the target named is GARP / TGF-β1 Y336A complex (human, UniProt Q14392 20-662; P01137 30-390). Briefly: flow cytometry on transfected 293T cells, 5 ug/ml; grade of Loss of binding read by footnote 2 (error bar crosses the 50% threshold). From the text: (§1) Resolution of the crystal structure of MHG-8 Fab/GARP/TGF-β1 complexes and analysis with the CONTACT software allowed the identification of 22 amino-acids in GARP, 8 amino-acids in LAP and 6 amino-acids in mature TGF-β1 that are located less than 5 Å away from an amino-acid of the light or heavy chain of the MHG-8 Fab (Tables 7a, b and c, and Table 8). Directed mutagenesis was used to construct plasmids encoding HA-tagged forms of GARP or TGF-β1 that are mutated at one, two, or three of these 36 positions (all mutations constructed are indicated in Table 8). […] Antibodies were used at a saturating concentration of 5 μg/ml for labeling. Binding of each antibody to a given mutant GARP/TGF-β1 complex was compared to their binding to wild type (WT) complexes, by determining an I_{m/wt} value (i.e. intensity of binding to mutant by comparison to WT). This value was calculated as follows: I_{m/wt} of antibody X=[Geom on mutant−Geom on control]/[Geom on WT−Geom on control]
(§2) The level of residual binding of anti-GARP or anti-LAP antibodies to each mutant was then calculated by comparison to WT, taking into account the expression levels of mutant and WT forms as measured with anti-HA antibodies. Residual binding was calculated as follows: Residual binding by an anti-GARP or anti-LAP antibody=[I_{m/wt} with anti-GARP or anti-LAP antibody]/[I_{m/wt} with anti-HA antibody]

For assay [6], the target named is GARP R143Y / TGF-β1 complex (human, UniProt Q14392 20-662; P01137 30-390). Described as above.
Excerpt: as §1, §2

Sequence of GARP R143Y / TGF-β1 complex (Q14392 20-662 R143Y limits assumed, chain 1 of 2): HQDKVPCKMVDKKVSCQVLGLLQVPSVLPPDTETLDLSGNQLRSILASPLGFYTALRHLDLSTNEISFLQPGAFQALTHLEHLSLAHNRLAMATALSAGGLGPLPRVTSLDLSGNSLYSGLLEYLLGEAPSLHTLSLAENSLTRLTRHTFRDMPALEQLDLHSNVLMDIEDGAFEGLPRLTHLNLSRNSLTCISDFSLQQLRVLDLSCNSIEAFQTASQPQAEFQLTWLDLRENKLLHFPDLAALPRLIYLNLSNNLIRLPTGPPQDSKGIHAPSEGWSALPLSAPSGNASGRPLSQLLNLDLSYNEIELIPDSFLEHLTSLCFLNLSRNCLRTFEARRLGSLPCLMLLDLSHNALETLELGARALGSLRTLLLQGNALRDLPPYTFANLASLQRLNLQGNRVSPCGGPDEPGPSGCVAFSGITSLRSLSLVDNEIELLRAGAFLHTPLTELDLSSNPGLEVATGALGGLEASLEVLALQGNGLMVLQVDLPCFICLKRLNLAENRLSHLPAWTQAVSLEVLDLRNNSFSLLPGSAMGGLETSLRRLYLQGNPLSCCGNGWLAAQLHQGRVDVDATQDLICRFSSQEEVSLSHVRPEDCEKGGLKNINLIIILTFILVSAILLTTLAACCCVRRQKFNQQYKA
Sequence of GARP R143Y / TGF-β1 complex (P01137 30-390 limits assumed, chain 2 of 2): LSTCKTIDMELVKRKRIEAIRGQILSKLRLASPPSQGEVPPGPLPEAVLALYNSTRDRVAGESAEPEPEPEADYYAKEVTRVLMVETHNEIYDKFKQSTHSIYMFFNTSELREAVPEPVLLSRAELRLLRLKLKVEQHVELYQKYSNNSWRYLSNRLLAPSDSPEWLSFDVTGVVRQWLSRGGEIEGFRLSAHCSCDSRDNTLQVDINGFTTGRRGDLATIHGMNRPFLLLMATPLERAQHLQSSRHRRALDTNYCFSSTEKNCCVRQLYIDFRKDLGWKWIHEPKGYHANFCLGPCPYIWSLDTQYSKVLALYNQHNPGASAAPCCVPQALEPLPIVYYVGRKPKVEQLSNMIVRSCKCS
T4 sequence (G3XA59 other isoform, or with tags, fused parts or gaps mutant limits assumed, chain 1 of 2): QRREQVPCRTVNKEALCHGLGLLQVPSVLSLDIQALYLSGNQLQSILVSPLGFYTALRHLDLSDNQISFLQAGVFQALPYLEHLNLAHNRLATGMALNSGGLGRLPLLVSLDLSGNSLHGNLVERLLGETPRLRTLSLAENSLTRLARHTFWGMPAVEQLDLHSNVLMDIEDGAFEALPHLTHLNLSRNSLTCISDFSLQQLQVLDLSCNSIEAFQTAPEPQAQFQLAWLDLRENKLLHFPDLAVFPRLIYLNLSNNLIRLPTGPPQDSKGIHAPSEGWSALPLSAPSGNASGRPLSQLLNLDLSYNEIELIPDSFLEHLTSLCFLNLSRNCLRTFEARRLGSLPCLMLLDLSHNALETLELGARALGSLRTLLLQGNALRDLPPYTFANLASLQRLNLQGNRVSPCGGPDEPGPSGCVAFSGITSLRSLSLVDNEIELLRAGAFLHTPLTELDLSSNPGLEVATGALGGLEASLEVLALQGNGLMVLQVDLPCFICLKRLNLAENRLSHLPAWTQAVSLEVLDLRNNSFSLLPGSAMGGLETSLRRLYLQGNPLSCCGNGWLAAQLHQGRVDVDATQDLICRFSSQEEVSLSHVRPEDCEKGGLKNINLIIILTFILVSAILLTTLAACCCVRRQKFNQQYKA
T4 sequence (TGF-β1, as listed by the source mutant limits assumed, chain 2 of 2): as the sequence (P01137 30-390 limits assumed, chain 2 of 2) above
Sequence of GARP / TGF-β1 Y336A complex (Q14392 20-662 limits assumed, chain 1 of 2): as the sequence (Q14392 20-662 R143Y limits assumed, chain 1 of 2) above, with Y124R counted along it
Sequence of GARP / TGF-β1 Y336A complex (P01137 30-390 Y336A limits assumed, chain 2 of 2): as the sequence (P01137 30-390 limits assumed, chain 2 of 2) above, with Y307A counted along it
T3 sequence (G3XA59 other isoform, or with tags, fused parts or gaps mutant limits assumed, chain 1 of 2): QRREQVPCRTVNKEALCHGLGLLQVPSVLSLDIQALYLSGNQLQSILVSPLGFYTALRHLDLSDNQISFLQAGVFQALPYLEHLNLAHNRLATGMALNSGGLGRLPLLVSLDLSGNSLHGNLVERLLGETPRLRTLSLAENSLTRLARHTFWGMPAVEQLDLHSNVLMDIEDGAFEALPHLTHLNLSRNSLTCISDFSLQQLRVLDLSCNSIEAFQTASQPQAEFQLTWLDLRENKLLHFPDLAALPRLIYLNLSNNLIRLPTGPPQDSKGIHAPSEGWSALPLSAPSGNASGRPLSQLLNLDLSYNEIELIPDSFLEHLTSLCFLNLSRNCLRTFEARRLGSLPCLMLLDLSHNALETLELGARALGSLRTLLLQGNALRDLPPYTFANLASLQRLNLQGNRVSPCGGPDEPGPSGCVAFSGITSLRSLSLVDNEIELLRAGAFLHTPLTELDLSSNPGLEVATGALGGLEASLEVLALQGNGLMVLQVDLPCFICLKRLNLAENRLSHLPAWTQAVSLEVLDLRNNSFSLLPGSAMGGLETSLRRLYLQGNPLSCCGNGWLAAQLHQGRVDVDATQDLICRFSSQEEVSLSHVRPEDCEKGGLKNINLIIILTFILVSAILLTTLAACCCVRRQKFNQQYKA
T3 sequence (TGF-β1, as listed by the source mutant limits assumed, chain 2 of 2): as the sequence (P01137 30-390 limits assumed, chain 2 of 2) above
T1 sequence (G3XA59 other isoform, or with tags, fused parts or gaps mutant limits assumed, chain 1 of 2): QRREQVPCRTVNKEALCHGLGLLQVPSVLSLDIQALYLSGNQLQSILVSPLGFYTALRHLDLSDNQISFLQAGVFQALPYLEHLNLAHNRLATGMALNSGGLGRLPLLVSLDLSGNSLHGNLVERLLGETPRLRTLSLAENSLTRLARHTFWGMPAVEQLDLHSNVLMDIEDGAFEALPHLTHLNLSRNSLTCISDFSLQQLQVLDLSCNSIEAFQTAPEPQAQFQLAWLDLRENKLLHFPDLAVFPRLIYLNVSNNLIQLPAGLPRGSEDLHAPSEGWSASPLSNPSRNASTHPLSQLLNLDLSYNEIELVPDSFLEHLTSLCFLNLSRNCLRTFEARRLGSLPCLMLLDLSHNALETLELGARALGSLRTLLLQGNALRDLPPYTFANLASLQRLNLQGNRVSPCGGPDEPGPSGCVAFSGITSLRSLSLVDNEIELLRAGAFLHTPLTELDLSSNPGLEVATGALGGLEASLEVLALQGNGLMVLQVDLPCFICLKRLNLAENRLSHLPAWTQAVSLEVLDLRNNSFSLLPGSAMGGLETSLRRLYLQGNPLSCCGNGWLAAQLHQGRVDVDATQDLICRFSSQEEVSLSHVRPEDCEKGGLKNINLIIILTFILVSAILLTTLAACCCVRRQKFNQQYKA
T1 sequence (TGF-β1, as listed by the source mutant limits assumed, chain 2 of 2): as the sequence (P01137 30-390 limits assumed, chain 2 of 2) above
T2 sequence (G3XA59 other isoform, or with tags, fused parts or gaps mutant limits assumed, chain 1 of 2): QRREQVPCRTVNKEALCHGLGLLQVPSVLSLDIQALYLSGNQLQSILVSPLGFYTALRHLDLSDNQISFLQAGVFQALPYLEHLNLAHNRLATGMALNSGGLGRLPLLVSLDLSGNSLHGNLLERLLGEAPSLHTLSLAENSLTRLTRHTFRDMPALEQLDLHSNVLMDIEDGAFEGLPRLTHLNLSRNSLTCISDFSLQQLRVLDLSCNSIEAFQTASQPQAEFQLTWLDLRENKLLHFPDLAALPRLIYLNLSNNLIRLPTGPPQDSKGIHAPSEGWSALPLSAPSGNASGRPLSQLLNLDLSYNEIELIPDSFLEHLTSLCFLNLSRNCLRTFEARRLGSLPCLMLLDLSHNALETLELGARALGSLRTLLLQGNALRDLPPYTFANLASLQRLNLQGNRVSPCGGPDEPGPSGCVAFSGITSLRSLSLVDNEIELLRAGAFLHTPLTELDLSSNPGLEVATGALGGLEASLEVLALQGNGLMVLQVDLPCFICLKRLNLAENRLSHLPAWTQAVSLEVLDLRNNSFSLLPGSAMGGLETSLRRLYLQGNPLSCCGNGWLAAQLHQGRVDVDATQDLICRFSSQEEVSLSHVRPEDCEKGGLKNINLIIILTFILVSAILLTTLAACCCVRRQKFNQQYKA
T2 sequence (TGF-β1, as listed by the source mutant limits assumed, chain 2 of 2): as the sequence (P01137 30-390 limits assumed, chain 2 of 2) above

B1: LHG-10 (antibody, human IgG1, V domains shown)
VH: EVQLVQPGAELRNSGASVKVSCKASGYRFTSYYIDWVRQAPGQGLEWMGRIDPEDGGTKYAQKFQGRVTFTADTSTSTAYVELSSLRSEDTAVYYCARNEWETVVVGDLMYEYEYWGQGTQVTVSS
VL: DIQMTQSPTSLSASLGDRVTITCQASQSISSYLAWYQQKPGQAPKLLIYGASRLQTGVPSRFSGSGSGTSFTLTISGLEAEDAGTYYCQQYDSLPVTFGQGTKVELK
notes: llama-derived V regions in a full human IgG1
B1: the binding result in assay [1], in assay [2], in assay [3] and in assay [4] was “no binding” each time. In addition, the “residual binding on mutant by comparison to WT” value in assay [5] and in assay [6] was at least 50% throughout.

For the origin of these results see US20160251438A1 (LUDWIG INSTITUTE FOR CANCER RESEARCH, published 2016).
